# Experimental data: patent US20240209106A1 (BEIGENE SWITZERLAND, published 2024)
# Residue numbers refer to the chain shown, from its start. Numbers in names are those of the source.
# B1: BE-244 (A-(G4S)3-BGA-5623) (bispecific antibody, human IgG1, kappa)
# heavy: QVQLVQSGAEVKKPGASVKVSCKASGYIFTSYYLHWVRQAPGQGLEWIGYINPQTGKTSYAQKFQGRVTMTRDTSTSTVYMELSSLRSEDTAVYYCAREYGNYNYPLDYWGQGTLVTVSSASTKGPSVFPLAPSSKSTSGGTAALGCLVKDYFPEPVTVSWNSGALTSGVHTFPAVLQSSGLYSLSSVVTVPSSSLGTQTYICNVNHKPSNTKVDKKVEPKSCDKTHTCPPCPAPPAAGPSVFLFPPKPKDTLMISRTPEVTCVVVDVSHEDPEVKFNWYVDGVEVHNAKTKPREEQYNSTYRVVSVLTVLHQDWLNGKEYKCKVSNKALAAPIEKTISKAKGQPREPQVYTLPPSREEMTKNQVSLTCLVKGFYPSDIAVEWESNGQPENNYKTTPPVLDSDGSFFLYSKLTVDKSRWQQGNVFSCSVMHEALHNHYTQKSLSLSPGKGGGGSGGGGSGGGGSEVQLLESGGGLVQPGGSLRLSCAASGFTVSAEDVGWVRQAPGKGLEWVSAILDKGGSTYYAESVKGRFTISRDNAKNTLYLQMSSLRAEDTAVYYCARIVYHAGGGVTFDTRGQGTQVTVSS
# light: DIQMTQSPSSLSASVGDRVTITCRASENQYGYLAWYQQKPGKVPKLLIYNYKNLVEGVPSRFSGSGSGTDFTLTISSLQPEDVATYYCQHHLGTPYTFGQGTKVEIKRTVAAPSVFIFPPSDEQLKSGTASVVCLLNNFYPREAKVQWKVDNALQSGNSQESVTEQDSKDSTYSLSSTLTLSKADYEKHKVYACEVTHQGLSSPVTKSFNRGEC
# B2: BE-562 (E-muFc-BGA-5623) (bispecific antibody)
# heavy: EVQLLESGGGLVQPGGSLRLSCAASGFTVSAEDVGWVRQAPGKGLEWVSAILDKGGSTYYAESVKGRFTISRDNAKNTLYLQMSSLRAEDTAVYYCARIVYHAGGGVTFDTRGQGTQVTVSSEPKSSDKTHTCPPCPAPPAAGPSVFLFPPKPKDTLMISRTPEVTCVVVDVSHEDPEVKFNWYVDGVEVHNAKTKPREEQYNSTYRVVSVLTVLHQDWLNGKEYKCKVSNKALAAPIEKTISKAKGQPREPQVYTLPPSREEMTKNQVSLTCLVKGFYPSDIAVEWESNGQPENNYKTTPPVLDSDGSFFLYSKLTVDKSRWQQGNVFSCSVMHEALHNHYTQKSLSLSPGKGGGGSQVQLVQSGAEVKKPGASVKVSCKASGYIFTSYYLHWVRQAPGQGLEWIGYINPQTGKTSYAQKFQGRVTMTRDTSTSTVYMELSSLRSEDTAVYYCAREYGNYNYPLDYWGQGTLVTVSSASTKGPSVFPLAPSSKSTSGGTAALGCLVKDYFPEPVTVSWNSGALTSGVHTFPAVLQSSGLYSLSSVVTVPSSSLGTQTYICNVNHKPSNTKVDKKVEPKSCD
# light: B1 light
# B3: BE-740 (A-IgG1-BGA-5623) (bispecific antibody)
# heavy: not shown
# light: B1 light
# B4: BE-755 (ZW1+2) (bispecific antibody, human IgG1, L234A L235A)
# heavy 1: QVQLVQSGAEVKKPGASVKVSCKASGYIFTSYYLHWVRQAPGQGLEWIGYINPQTGKTSYAQKFQGRVTMTRDTSTSTVYMELSSLRSEDTAVYYCAREYGNYNYPLDYWGQGTLVTVSSASTKGPSVFPLAPSSKSTSGGTAWLGCEVTDYFPEPVTVSWNSGALTSGVHTFPAVLESSGLYSLSSVVTVPSSSLGTQTYICNVNHKPSNTKVDKKVEPKSCDKTHTCPPCPAPEAAGGPSVFLFPPKPKDTLMISRTPEVTCVVVSVSHEDPEVKFNWYVDGVEVHNAKTKPREEQYNSTYRVVSVLTVLHQDWLNGKEYKCKVSNKALPAPIEKTISKAKGQPREPQVYVLPPSRDELTKNQVSLLCLVKGFYPSDIAVEWESNGQPENNYLTWPPVLDSDGSFFLYSKLTVDKSRWQQGNVFSCSVMHEALHNHYTQKSLSLSPGK
# light: B1 light with F116A, Q124R, L135V, T178R
# heavy 2: not shown
# B5: BE-942 (ZW 1+1) (bispecific antibody, human IgG1, L234A L235A)
# heavy 1: B4 heavy 1
# light: B1 light with F116A, Q124R, L135V, T178R
# heavy 2: not shown
# B6: BE-718 (A-BGA-5623-BGA-5623) (bispecific antibody, human IgG1, kappa)
# heavy: QVQLVQSGAEVKKPGASVKVSCKASGYIFTSYYLHWVRQAPGQGLEWIGYINPQTGKTSYAQKFQGRVTMTRDTSTSTVYMELSSLRSEDTAVYYCAREYGNYNYPLDYWGQGTLVTVSSASTKGPSVFPLAPSSKSTSGGTAALGCLVKDYFPEPVTVSWNSGALTSGVHTFPAVLQSSGLYSLSSVVTVPSSSLGTQTYICNVNHKPSNTKVDKKVEPKSCDKTHTCPPCPAPPAAGPSVFLFPPKPKDTLMISRTPEVTCVVVDVSHEDPEVKFNWYVDGVEVHNAKTKPREEQYNSTYRVVSVLTVLHQDWLNGKEYKCKVSNKALAAPIEKTISKAKGQPREPQVYTLPPSREEMTKNQVSLTCLVKGFYPSDIAVEWESNGQPENNYKTTPPVLDSDGSFFLYSKLTVDKSRWQQGNVFSCSVMHEALHNHYTQKSLSLSPGKGGGGSEVQLLESGGGLVQPGGSLRLSCAASGFTVSAEDVGWVRQAPGKGLEWVSAILDKGGSTYYAESVKGRFTISRDNAKNTLYLQMSSLRAEDTAVYYCARIVYHAGGGVTFDTRGQGTQVTVSSGGGGSEVQLLESGGGLVQPGGSLRLSCAASGFTVSAEDVGWVRQAPGKGLEWVSAILDKGGSTYYAESVKGRFTISRDNAKNTLYLQMSSLRAEDTAVYYCARIVYHAGGGVTFDTRGQGTQVTVSS
# light: B1 light
# B7: BE-375 (E-IgG1-BGA-5623) (bispecific antibody)
# heavy: not shown
# light: B1 light
# B8: A-CD137×CEA-M1 (bispecific antibody, human IgG1, kappa)
# heavy: QVQLVQSGAEVKKPGASVKVSCKASGYIFTSYYLHWVRQAPGQGLEWIGYINPQTGKTSYAQKFQGRVTMTRDTSTSTVYMELSSLRSEDTAVYYCAREYGNYNYPLDYWGQGTLVTVSSASTKGPSVFPLAPSSKSTSGGTAALGCLVKDYFPEPVTVSWNSGALTSGVHTFPAVLQSSGLYSLSSVVTVPSSSLGTQTYICNVNHKPSNTKVDKKVEPKSCDKTHTCPPCPAPPAAGPSVFLFPPKPKDTLMISRTPEVTCVVVDVSHEDPEVKFNWYVDGVEVHNAKTKPREEQYNSTYRVVSVLTVLHQDWLNGKEYKCKVSNKALAAPIEKTISKAKGQPREPQVYTLPPSREEMTKNQVSLTCLVKGFYPSDIAVEWESNGQPENNYKTTPPVLDSDGSFFLYSKLTVDKSRWQQGNVFSCSVMHEALHNHYTQKSLSLSPGKGGGGSEVQLLESGGGLVQPGGSLRLSCAASGFTLSAEDMGWVRQAPGKGLEWVSAILDFGGSTYYAESVKGRFTISRDNAKNTLYLQMSSLRAEDTAVYYCARVVYHAGGGVTFDYWGQGTLVTVSS
# light: B1 light
# B9: A-CD137×CEA-M5 (bispecific antibody)
# heavy: B8 heavy with E516D
# light: B1 light
# notes: V35M as printed
# B10: A-CD137×CEA-M4 (bispecific antibody, human IgG1, kappa)
# heavy: B8 heavy with F481R, M488V
# light: B1 light
# B11: A-CD137×CEA-M6 (bispecific antibody)
# heavy: B8 heavy with F481R, E516D
# light: B1 light
# notes: V35M as printed
# B12: A-CD137×CEA-M7 (bispecific antibody, human IgG1, kappa)
# heavy: B8 heavy with M488V, E516D
# light: B1 light
# B13: A-CD137×CEA-M2 (bispecific antibody)
# heavy: B8 heavy with F481R
# light: B1 light
# notes: V35M as printed
# B14: Format A - BGA-8425 (bispecific antibody, human IgG1, kappa)
# heavy: B8 heavy with M488V, F508S, F563Y, W566R, L571Q
# light: B1 light
# notes: Light chain by the description of Format A
# B15: Format A - BGA-7746 (bispecific antibody, human IgG1, kappa)
# heavy: B8 heavy with L483V, M488V, Y565T, W566R, L571Q
# light: B1 light
# notes: as for B14
# B16: Format A - BGA-9468 (bispecific antibody, human IgG1, kappa)
# heavy: B8 heavy with L483V, M488V, F508S, A557S, Y565L, W566R, L571Q
# light: B1 light
# notes: as for B14
# B17: Format A - BGA-3953 (bispecific antibody, human IgG1, kappa)
# heavy: B8 heavy with L483V, M488V, F508S, V553I, Y565T, W566R, L571Q
# light: B1 light
# notes: as for B14
# B18: Format A - BGA-5385 (bispecific antibody, human IgG1, kappa)
# heavy: B8 heavy with M488V, F508H, V554I, Y565T, W566R, L571Q
# light: B1 light
# notes: as for B14
# B19: Format A - BGA-3285 (bispecific antibody, human IgG1, kappa)
# heavy: B8 heavy with L483I, M488V, Y565T, W566R, L571Q
# light: B1 light
# notes: as for B14
# Target: T1, full-length human CD137 (huCD137) (human, UniProt Q07011 24-255)
# Assay: cell-based or functional assay
# T1 sequence (Q07011 24-255 limits assumed): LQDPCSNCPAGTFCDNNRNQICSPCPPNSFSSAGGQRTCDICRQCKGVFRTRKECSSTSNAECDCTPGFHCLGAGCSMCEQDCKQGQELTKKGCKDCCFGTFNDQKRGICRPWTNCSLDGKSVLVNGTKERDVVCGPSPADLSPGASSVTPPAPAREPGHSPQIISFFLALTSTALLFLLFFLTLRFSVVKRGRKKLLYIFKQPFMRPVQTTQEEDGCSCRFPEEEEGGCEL
row,Binder,"Functional assay EC50 (ug/ml), in vitro CD137 activation (PBMC cytokine release) [µg/mL]"
1,B1,0.18
2,B2,4.69
3,B3,0.17
4,B4,1.16
5,B5,25.1
6,B6,0.01
7,B7,1.76

# Target: T1, full-length human CD137 (huCD137)
# Assay: flow cytometry on Hut78/huCD137 cells
Binder,binding result,EC50 (read off the curve) [µg/mL]
B8,binds,–
B9,–,~2
B10,binds,–
B11,–,~2
B12,–,~0.1
B13,–,~2

# Target: human CD137 ECD-mIgG2a (human)
# Assay: SPR, antibody captured on anti-human Fc surface; analyte taken as human CD137 ECD-mIgG2a
# human CD137 ECD-mIgG2a (human), sequence (chain, as listed by the source limits assumed): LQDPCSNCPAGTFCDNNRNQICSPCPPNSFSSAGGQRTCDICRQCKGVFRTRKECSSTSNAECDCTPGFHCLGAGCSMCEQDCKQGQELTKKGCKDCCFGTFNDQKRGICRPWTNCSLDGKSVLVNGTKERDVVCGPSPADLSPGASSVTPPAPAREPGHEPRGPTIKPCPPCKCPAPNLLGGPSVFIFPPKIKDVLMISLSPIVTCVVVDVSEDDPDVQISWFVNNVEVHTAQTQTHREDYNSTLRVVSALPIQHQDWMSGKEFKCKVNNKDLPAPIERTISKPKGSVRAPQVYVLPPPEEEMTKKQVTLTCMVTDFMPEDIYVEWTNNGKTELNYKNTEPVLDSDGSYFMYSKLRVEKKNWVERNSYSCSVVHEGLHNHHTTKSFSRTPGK
Binder,Kd [nM],koff [s⁻¹],kon [M⁻¹ s⁻¹]
B8,586,0.00455,7770
B9,646,0.00574,8890
B10,194,0.0247,127000
B11,767,0.0114,14800
B12,266,0.003,11300
B13,232,0.0105,45200

# Target: human CD137 ECD-mIgG2a (human)
# Assay: SPR, multispecific antibody captured on anti-human IgG Fc chip, human CD137 ECD-mIgG2a flowed over
# Method: Briefly, anti-human IgG (Fc) antibody was immobilized on an activated CM5 biosensor chip (Cat.: BR100839, GE Life Sciences). Anti-huCD137 monoclonal antibodies or multispecific antibodies were flown through the chip surface and captured by anti-human IgG (Fc) antibody. […] The equilibrium dissociation constant (KD)) was calculated as the ratio koff/kₒₙ.
row,Binder,Kd [nM]
1,B14,189
2,B15,245
3,B16,873
4,B17,115
5,B18,154
6,B19,798
